35 molecules from article PMC10786891, “Massively parallel profiling of RNA-targeting CRISPR-Cas13d” can be followed below.

Changes are numbered by the printed parent chain. Names may count otherwise.

First the molecules themselves.
T1: EsCas13d, nuclease-dead (Eubacterium siraeum, UniProt B0MS50, R295A;H300A;R849A;H854A)
T1 sequence: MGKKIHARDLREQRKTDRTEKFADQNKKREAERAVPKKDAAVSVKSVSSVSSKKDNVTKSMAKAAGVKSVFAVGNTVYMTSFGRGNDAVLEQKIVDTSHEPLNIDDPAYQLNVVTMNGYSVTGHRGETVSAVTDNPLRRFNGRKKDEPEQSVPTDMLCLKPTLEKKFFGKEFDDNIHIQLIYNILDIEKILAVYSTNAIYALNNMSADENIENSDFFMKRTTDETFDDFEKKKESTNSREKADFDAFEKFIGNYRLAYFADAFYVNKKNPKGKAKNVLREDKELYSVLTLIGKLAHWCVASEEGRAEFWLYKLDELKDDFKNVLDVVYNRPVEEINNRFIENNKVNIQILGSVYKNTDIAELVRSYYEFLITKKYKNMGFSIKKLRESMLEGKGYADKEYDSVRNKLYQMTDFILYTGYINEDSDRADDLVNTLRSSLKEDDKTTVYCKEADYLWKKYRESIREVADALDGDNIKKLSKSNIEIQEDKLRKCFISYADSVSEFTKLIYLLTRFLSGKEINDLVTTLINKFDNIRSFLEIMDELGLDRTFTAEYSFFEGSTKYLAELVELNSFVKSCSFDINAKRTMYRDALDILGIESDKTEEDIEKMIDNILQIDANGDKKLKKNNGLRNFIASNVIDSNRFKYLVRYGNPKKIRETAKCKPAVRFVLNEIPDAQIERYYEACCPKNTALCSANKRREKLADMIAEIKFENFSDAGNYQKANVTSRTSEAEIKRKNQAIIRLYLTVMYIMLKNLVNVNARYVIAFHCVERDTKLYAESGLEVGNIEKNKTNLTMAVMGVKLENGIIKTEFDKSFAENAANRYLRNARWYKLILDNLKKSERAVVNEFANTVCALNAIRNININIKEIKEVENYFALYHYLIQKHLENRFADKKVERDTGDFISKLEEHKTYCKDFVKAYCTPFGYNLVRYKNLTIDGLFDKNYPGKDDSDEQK

B1: target 2 MT 5'PFS AUG 3'PFS AUU (mixed)
RNA 1: CACCCGUGCAAAAUUGCAGGGGUCUAAAACCUUCUCCAAAUUGUUUCAUCCU
RNA 2: GGGAAUGGAUCCACAUCUACGAAUUCAUGAGGAUGAAACAAUUUGGAGAAGAUUAGAUCGGAAGAGCACACGU
B2: target 2 MT 5'PFS UUG 3'PFS AAU (mixed)
RNA 1: B1 RNA 1
RNA 2: B1 RNA 2 with A27U, U53A
B3: target 2 MT 5'PFS UUU 3'PFS UCA (mixed)
RNA 1: B1 RNA 1
RNA 2: B1 RNA 2 with A27U, G29U, A52U, U53C, U54A
B4: target 2 MT 5'PFS UUG 3'PFS AAC (mixed)
RNA 1: B1 RNA 1
RNA 2: B1 RNA 2 with A27U, U53A, U54C
B5: target 2 MT 5'PFS GGU 3'PFS AGA (mixed)
RNA 1: B1 RNA 1
RNA 2: B1 RNA 2 with A27G, U28G, G29U, U53G, U54A
B6: target 2 MT 5'PFS CUC 3'PFS CGC (mixed)
RNA 1: B1 RNA 1
RNA 2: B1 RNA 2 with A27C, G29C, A52C, U53G, U54C
B7: target 2 MT 5'PFS GAU 3'PFS UUU (mixed)
RNA 1: B1 RNA 1
RNA 2: B1 RNA 2 with A27G, U28A, G29U, A52U
B8: target 2 MT 5'PFS AAC 3'PFS CGC (mixed)
RNA 1: B1 RNA 1
RNA 2: B1 RNA 2 with U28A, G29C, A52C, U53G, U54C
B9: target 2 MT 5'PFS AAA 3'PFS AGC (mixed)
RNA 1: B1 RNA 1
RNA 2: B1 RNA 2 with U28A, G29A, U53G, U54C
B10: target 2 MT 5'PFS UUG 3'PFS UUA (mixed)
RNA 1: B1 RNA 1
RNA 2: B1 RNA 2 with A27U, A52U, U54A
B11: target 2 MT 5'PFS AAC 3'PFS CGG (mixed)
RNA 1: B1 RNA 1
RNA 2: B1 RNA 2 with U28A, G29C, A52C, U53G, U54G
B12: target 2 MT 5'PFS GGU 3'PFS AGG (mixed)
RNA 1: B1 RNA 1
RNA 2: B1 RNA 2 with A27G, U28G, G29U, U53G, U54G
B13: target 2 MT 5'PFS UUU 3'PFS UCC (mixed)
RNA 1: B1 RNA 1
RNA 2: B1 RNA 2 with A27U, G29U, A52U, U53C, U54C
B14: target 2 MT 5'PFS GGA 3'PFS AGA (mixed)
RNA 1: B1 RNA 1
RNA 2: B1 RNA 2 with A27G, U28G, G29A, U53G, U54A
B15: target 2 MT 5'PFS GGU 3'PFS AGC (mixed)
RNA 1: B1 RNA 1
RNA 2: B1 RNA 2 with A27G, U28G, G29U, U53G, U54C
B16: target 2 MT 5'PFS GUU 3'PFS UGU (mixed)
RNA 1: B1 RNA 1
RNA 2: B1 RNA 2 with A27G, G29U, A52U, U53G
B17: target 2 MT 5'PFS UUU 3'PFS CAA (mixed)
RNA 1: B1 RNA 1
RNA 2: B1 RNA 2 with A27U, G29U, A52C, U53A, U54A
B18: target 2 MT 5'PFS ACA 3'PFS CAG (mixed)
RNA 1: B1 RNA 1
RNA 2: B1 RNA 2 with U28C, G29A, A52C, U53A, U54G
B19: target 2 MT 5'PFS UUG 3'PFS AAG (mixed)
RNA 1: B1 RNA 1
RNA 2: B1 RNA 2 with A27U, U53A, U54G
B20: target 2 MT 5'PFS UCU 3'PFS AGC (mixed)
RNA 1: B1 RNA 1
RNA 2: B1 RNA 2 with A27U, U28C, G29U, U53G, U54C
B21: target 2 MT 5'PFS GGA 3'PFS AGC (mixed)
RNA 1: B1 RNA 1
RNA 2: B1 RNA 2 with A27G, U28G, G29A, U53G, U54C
B22: target 2 MT 5'PFS AGG 3'PFS CGA (mixed)
RNA 1: B1 RNA 1
RNA 2: B1 RNA 2 with U28G, A52C, U53G, U54A
B23: target 2 MT 5'PFS GGA 3'PFS AGU (mixed)
RNA 1: B1 RNA 1
RNA 2: B1 RNA 2 with A27G, U28G, G29A, U53G
B24: target 2 MT 5'PFS CUC 3'PFS CGA (mixed)
RNA 1: B1 RNA 1
RNA 2: B1 RNA 2 with A27C, G29C, A52C, U53G, U54A
B25: target 2 MT 5'PFS UUG 3'PFS AAA (mixed)
RNA 1: B1 RNA 1
RNA 2: B1 RNA 2 with A27U, U53A, U54A
B26: target 2 MT 5'PFS GGA 3'PFS AGG (mixed)
RNA 1: B1 RNA 1
RNA 2: B1 RNA 2 with A27G, U28G, G29A, U53G, U54G
B27: target 2 MT 5'PFS AAA 3'PFS AGG (mixed)
RNA 1: B1 RNA 1
RNA 2: B1 RNA 2 with U28A, G29A, U53G, U54G
B28: target 2 MT 5'PFS UUU 3'PFS CAC (mixed)
RNA 1: B1 RNA 1
RNA 2: B1 RNA 2 with A27U, G29U, A52C, U53A, U54C
B29: target 2 MT 5'PFS UUU 3'PFS CAU (mixed)
RNA 1: B1 RNA 1
RNA 2: B1 RNA 2 with A27U, G29U, A52C, U53A
B30: target 2 MT 5'PFS UUU 3'PFS CAG (mixed)
RNA 1: B1 RNA 1
RNA 2: B1 RNA 2 with A27U, G29U, A52C, U53A, U54G
B31: target 2 MT 5'PFS ACA 3'PFS CAU (mixed)
RNA 1: B1 RNA 1
RNA 2: B1 RNA 2 with U28C, G29A, A52C, U53A
B32: target 1 C6G,U8C (mixed)
RNA 1: CACCCGUGCAAAAAUGCAGGGGUCUAAAACUGAGCGGAUAACCUCUCUAUGG
RNA 2: GGGAAUGGAUCCACAUCUACGAAUUCGUACCAUAGAGAGGUUACCGGCUCACCGAGAUCGGAAGAGCACACGU
B33: target 1 A1C,A14G (mixed)
RNA 1: B32 RNA 1
RNA 2: B32 RNA 2 with A38G, C44U, G46C, A51C
B34: target 1 C4G,C7U (mixed)
RNA 1: B32 RNA 1
RNA 2: B32 RNA 2 with C44U, C45U, G46C, C48G
B35: target 1 insA 3' of 8,insU 3' of 2 (mixed)
RNA 1: B32 RNA 1
RNA 2: GGGAAUGGAUCCACAUCUACGAAUUCGUACCAUAGAGAGGUUAUACCGCUCUACCGAGAUCGGAAGAGCACACGU

This data set has as its target T1, EsCas13d, nuclease-dead. The experiment in a line: crRNA (strand 1, pre-loaded); Mg2+; 40 mM Tris-HCl pH 7.5, 150 mM NaCl, 6 mM MgCl2, 1 mM DTT, 0.1% Tween-20, 0.2 mg/ml BSA; 25 C; 10 min per concentration, then washed. To be noted: tags: His6-TwinStrep-SUMO cleaved; N-terminal SNAP kept (SNAP-Surface 488); label: 3' end held by stalled T7 RNA polymerase.
As for B1, the Kd – broadly, the constant that tells how readily two partners part at equilibrium – stood at 9.9 ± 1.2 nM.

B2 yielded an equilibrium dissociation constant (Kd) of 9.8 ± 1.2 nM.

The molecule B3 registered a Kd of 8.7 ± 1 nM.

B4 returned an equilibrium dissociation constant (Kd) of 9.8 ± 1.2 nM.

Take B5: the dissociation constant Kd amounted to 10.6 ± 1.5 nM.

Turning to B6, the Kd was 2.25 ± 0.29 nM. Compared with the last molecule, the Kd is about 4.7-fold lower.

B7: the Kd came out at 47 ± 13 nM.

For the molecule B8, the affinity, expressed as Kd, was 4.7 ± 1.1 nM.

Consider B9, for which the affinity, expressed as Kd, was 4.2 ± 1.5 nM.

B10 gave a Kd of 29 ± 7 nM. This Kd is about 6.9-fold higher than that of the molecule before.

B11: the Kd was found to be 3.2 ± 0.5 nM.

Regarding B12, binding was characterised by a dissociation constant (Kd) of 14.4 ± 1.3 nM.

B13: the dissociation constant (Kd) turned out to be 20.7 ± 1.9 nM.

B14 came in with a Kd of 8.7 ± 1.1 nM.

B15 showed an equilibrium dissociation constant (Kd) of 13.8 ± 1.9 nM. Against the preceding molecule, the Kd is about 1.6-fold higher.

B16: the Kd came to 21 ± 2.3 nM.

As to B17, the Kd amounted to 7.6 ± 1 nM.

B18 came in with a Kd of 4.8 ± 0.9 nM. This Kd is about 1.6-fold lower than that of the molecule before.

B19 yielded a dissociation constant (Kd) of 9.6 ± 0.7 nM.

B20 came in with a Kd of 11 ± 2.3 nM.

The molecule B21 came in with a dissociation constant (Kd) of 7.3 ± 0.7 nM.

B22: the Kd was 4.5 ± 0.5 nM.

In turn, B23 yielded a Kd of 14.1 ± 1.4 nM. This Kd is about 3.1-fold higher than that of the molecule before.

B24: binding was characterised by a dissociation constant (Kd) of 1.62 ± 0.31 nM.

B25 gave an equilibrium dissociation constant (Kd) of 6.7 ± 0.6 nM. Against the preceding molecule, the Kd is about 4.1-fold higher.

For B26, the Kd came out at 8.4 ± 0.6 nM.

The molecule B27 displayed a dissociation constant (Kd) of 4.7 ± 0.9 nM.

With B28, binding was characterised by a dissociation constant (Kd) of 7.5 ± 1 nM. Against the preceding molecule, the Kd is about 1.6-fold higher.

B29 displayed a Kd of 6.8 ± 0.8 nM.

For the molecule B30, the dissociation constant Kd is 5 ± 0.4 nM.

As for B31, binding was characterised by a dissociation constant (Kd) of 4.4 ± 1 nM.

The molecule B32 returned a Kd of 11.9 ± 0.6 nM.

With B33, binding was characterised by a dissociation constant (Kd) of 25 ± 4 nM.

Take B34: the Kd is 3.78 ± 0.31 nM.

Take B35: the dissociation constant Kd came to 22.5 ± 1.4 nM.
